Article PMC9045202

Target: EFG displayed on the surface of E. coli BL21 as a fusion with InaZN and mCherry (BL21-pEImC-EFG) (Escherichia coli (ExPEC strain RS218)) (UniProt P0A6M8)
Assay: fluorescence intensity of labelled ligand bound to bacteria, competition; BL21-pEImC-EFG incubated with a mixture of fluor-TF (20 μg/mL) and an excess of unlabeled holo-TF; fluorescence of 10^7 bacterial cells, excitation 485 nm, emission 535 nm

Chain of UniProt P0A6M8 (P0A6M8 whole entry, the tested form may be a part): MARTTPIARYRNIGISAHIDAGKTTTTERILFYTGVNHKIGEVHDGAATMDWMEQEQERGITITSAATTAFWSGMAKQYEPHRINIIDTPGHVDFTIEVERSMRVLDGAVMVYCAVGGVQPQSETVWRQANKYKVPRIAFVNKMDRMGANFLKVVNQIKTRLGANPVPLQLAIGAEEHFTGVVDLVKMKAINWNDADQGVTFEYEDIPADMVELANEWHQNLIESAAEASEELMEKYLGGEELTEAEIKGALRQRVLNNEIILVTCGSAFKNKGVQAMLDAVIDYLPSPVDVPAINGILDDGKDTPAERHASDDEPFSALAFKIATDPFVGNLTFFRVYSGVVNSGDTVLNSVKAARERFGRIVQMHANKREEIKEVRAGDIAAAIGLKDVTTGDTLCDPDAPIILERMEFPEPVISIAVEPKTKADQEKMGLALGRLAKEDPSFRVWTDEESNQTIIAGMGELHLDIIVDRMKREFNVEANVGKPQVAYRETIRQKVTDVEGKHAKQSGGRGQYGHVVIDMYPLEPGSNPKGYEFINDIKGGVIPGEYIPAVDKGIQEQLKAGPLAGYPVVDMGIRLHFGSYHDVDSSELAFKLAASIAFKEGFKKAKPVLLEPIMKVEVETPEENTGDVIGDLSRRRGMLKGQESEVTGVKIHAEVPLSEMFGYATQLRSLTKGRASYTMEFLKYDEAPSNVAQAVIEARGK

## holo-transferrin (iron-saturated holo-TF), unlabeled (from UniProt P02787 20-698) (natural protein)
  fluorescence intensity of bound fluor-TF with an excess of unlabeled holo-TF: 76.4%
